Data reported in patent US20170275357A1 (Bristol-Myers Squibb, published 2017).
Substitutions are numbered along the chain they refer to.

T1: human IL-17F homodimer (human, UniProt Q96PD4 31-163)
T1 sequence: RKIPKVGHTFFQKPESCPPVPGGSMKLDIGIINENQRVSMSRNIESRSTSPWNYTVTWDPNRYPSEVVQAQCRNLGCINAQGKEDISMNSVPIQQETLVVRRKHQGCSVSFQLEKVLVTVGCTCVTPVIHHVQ

B1: 339-104 (antibody, human IgG1, V domains shown)
VH: QVQLVQSGAEVKKPGASVKVSCKASGYTFNEYTMHWVKQSHGQRLEWMGGINPNSGGVSYNQNFKGKATLTVDTSSSTAYMELSSLRSEDTAVFYCARGGDGYYTNYFDIDYWGQGTTVTVSS
VL: DIQMTQSPSSLSASVGDRVTITCSASSSVNYMHWYQQKPGKVPKLLIYDTSKLASGVPSRFSGSGSGTDFTLTISSLQPEDVATYYCQQWNSHPLTFGQGTKLEIK
B2: 339-105 (antibody, human IgG1, V domains shown)
VH: B1 VH with N30T, K38R, S40A, H41P, K67R, A68V, L70I, V72R
VL: B1 VL
B3: 339-39 (antibody, human IgG1, V domains shown)
VH: B1 VH
VL: EIVLTQSPDFQSVTPKEKVTITCSASSSVNYMHWYQQKPDQSPKLLIKDTSKLASGVPSRFSGSGSGTDFTLTINSLEAEDAATYYCQQWNSHPLTFGQGTKLEIK
B4: 339-35 (antibody, human IgG1, V domains shown)
VH: B1 VH with K67R, A68V, L70I, V72R, S76A, F94Y
VL: B3 VL
B5: 339-127 (antibody, human IgG1, V domains shown)
VH: B1 VH with K67R, A68V, L70I, V72R, S76A, F94Y
VL: B1 VL
B6: 339-38 (antibody, human IgG1, V domains shown)
VH: B1 VH with S76A, F94Y
VL: B3 VL
B7: 339-37 (antibody, human IgG1, V domains shown)
VH: B1 VH with N30T, K38R, S40A, H41P, K67R, A68V, L70I, V72R
VL: B3 VL
B8: 339-71 (antibody, human IgG1, V domains shown)
VH: B1 VH with N30T, K38R, S40A, H41P, S76A, F94Y
VL: B3 VL
B9: 339-128 (antibody, human IgG1, V domains shown)
VH: B1 VH with N30T, K38R, S40A, H41P, S76A, F94Y
VL: B1 VL
B10: 339-125 (antibody, human IgG1, V domains shown)
VH: B1 VH with S76A, F94Y
VL: B1 VL
B11: wild-type IL-23 (His-tagged p19 / non-tagged p40) (ligand, human)
chain 1: RAVPGGSSPAWTQCQQLSQKLCTLAWSAHPLVGHMDLREEGDEETTNDVPHIQCGDGCDPQGLRDNSQFCLQRIHQGLIFYEKLLGSDIFTGEPSLLPDSPVGQLHASLLGLSQLLQPEGHHWETQQIPSLSPSQPWQRLLLRFKILRSLQAFVAVAARVFAHGAATLSP
chain 2: IWELKKDVYVVELDWYPDAPGEMVVLTCDTPEEDGITWTLDQSSEVLGSGKTLTIQVKEFGDAGQYTCHKGGEVLSHSLLLLHKKEDGIWSTDILKDQKEPKNKTFLRCEAKNYSGRFTCWWLTTISTDLTFSVKSSRGSSDPQGVTCGAATLSAERVRGDNKEYEYSVECQEDSACPAAEESLPIEVMVDAVHKLKYENYTSSFFIRDIIKPDPPKNLQLKPLKNSRQVEVSWEYPDTWSTPHSYFSLTFCVQVQGKSKREKKDRVFTDKTSATVICRKNASISVRAQDRYYSSSWSEWASVPCS
B12: 339-33 (antibody, human IgG1, V domains shown)
VH: B1 VH with N30T, K38R, S40A, H41P, K67R, A68V, L70I, V72R, S76A, F94Y
VL: B3 VL
B13: 339-126 (antibody, human IgG1, V domains shown)
VH: B1 VH with N30T, K38R, S40A, H41P, K67R, A68V, L70I, V72R, S76A, F94Y
VL: B1 VL
B14: human IL-23 (IL-23p19/IL-12B heterodimer) (ligand)
chain 1: B11 chain 1
chain 2: B11 chain 2
B15: C/DVCV1 IgG1.1 (bispecific antibody)
heavy: QIQLVQSGPELKKPGETVEISCKASGYTFTDYLIFWVKQAPGKGLNWMGWINTETVEPTYADDFKGRFAFSLETSASTAHLLINNLKKEDTSTYFCARVPHLGPYYYAMDYWGQGTSVTVSSASTKGPSVFPLAPSSKSTSGGTAALGCLVKDYFPEPVTVSWNSGALTSGVHTFPAVLQSSGLYSLSSVVTVPSSSLGTQTYICNVNHKPSNTKVDKKVEPKSCGGGGSGGGGSQVTLKESGPGILQPSQTLSLTCSFSGFSLSTSGMGVGWIRQPSGKGLEWLANIWWDDDKRYNPALKSRLTISKDTSSNQVFLKIASVDTADTATYYCARIDYDYDRGAYHVMDYWGQGTSVTVSSEPKSSDKTHTCPPCPAPEAEGAPSVFLFPPKPKDTLMISRTPEVTCVVVDVSHEDPEVKFNWYVDGVEVHNAKTKPREEQYNSTYRVVSVLTVLHQDWLNGKEYKCKVSNKALPSSIEKTISKAKGQPREPQVYTLPPSRDELTKNQVSLTCLVKGFYPSDIAVEWESNGQPENNYKTTPPVLDSDGSFFLYSKLTVDKSRWQQGNVFSCSVMHEALHNHYTQKSLSLSPGK
light: DIVLKQSPASLGVALGQRATISCRASKSVSTSDFSYMHWYQQKPGQPPELLIYLASNLESGVPARFSGSGSGTDFTLNIHPVEEEDAATYYCQHSREFPPTFGAGTKLELKRTVAAPSVFIFPPSDEQLKSGTASVVCLLNNFYPREAKVQWKVDNALQSGNSQESVTEQDSKDSTYSLSSTLTLSKADYEKHKVYACEVTHQGLSSPVTKSFNRGECGGGGSGGGGSDIQMTQSPASLSVSVGETVTITCRTSENIFSNLAWYQQKQGKSPQLLVYDATNLADGVPSRFSGSGSGTQYSLKINSLQSEDFGTYYCQHFWYTPWTFGGGTKLEIK

Target: T2, human IL-17A/F heterodimer (human, UniProt Q16552 24-155; Q96PD4 31-163)
Assay: cell-based or functional assay

IC50, NIH/3T3/KZ170 NF-kB luciferase reporter	Binder
0.83 nM	B1
23 nM	B2
0.23 nM	B3
2.4 nM	B4
3.4 nM	B5
0.27 nM	B6
20 nM	B7
0.37 nM	B8
0.41 nM	B9
0.81 nM	B10

Target: T3, human IL-17A homodimer (human, UniProt Q16552 24-155)
Assay: cell-based or functional assay

IC50, NIH/3T3/KZ170 NF-kB luciferase reporter	Binder
1.5 nM	B1
> 600 nM	B2
7.6 nM	B3
> 600 nM	B4
190 nM	B5
8.2 nM	B6
> 600 nM	B7
16 nM	B8
5.1 nM	B9
1.5 nM	B10

Target: T1, human IL-17F homodimer
Assay: cell-based or functional assay

IC50, NIH/3T3/KZ170 NF-kB luciferase reporter	Binder
0.83 nM	B1
2.6 nM	B2
0.25 nM	B3
0.64 nM	B4
0.5 nM	B5
0.27 nM	B6
3.5 nM	B7
0.2 nM	B8
0.25 nM	B9
0.83 nM	B10

Target: T4, human IL-23Rα/human IL-12Rβ1 on BaF3 transfectants (human, UniProt Q5VWK5 24-629; P42701 24-662)
Assay: cell-based or functional assay

EC50, pSTAT3 in BaF3/huIL-23Ra/huIL-12Rb1 transfectants	Binder
21 pM	B11

Target: T3, human IL-17A homodimer
Assay: SPR Biacore T100, captured antibody, bivalent analyte model
Experimental: (§1) Binding kinetics and affinity studies were performed on a BIACORE® T100 system (GE Healthcare, Piscataway, N.J.). Methods for the BIACORE® T100 were programmed using BIACORE® T100 Control Software, v 2.0. For these experiments, the humanized anti-human IL-17A/F antibodies were captured onto a CM4 sensor chip via either goat anti-human IgG Fc-gamma antibody (Jackson ImmunoResearch, West Grove, Pa.) or goat anti-mouse IgG Fc-gamma antibody (Jackson ImmunoResearch). Binding experiments with the IL-17 molecules were performed at 25° C. in a buffer of 10 mM HEPES, 150 mM NaCl, 3 mM EDTA, 0.05% Surfactant P20 (GE Healthcare), 1 mg/mL bovine serum albumin, pH 7.4.
(§2) The capture antibody, goat anti-human IgG Fc-gamma, was diluted to concentration of 20 μg/mL in 10 mM sodium acetate pH 5.0, and then covalently immobilized to all four flow cells of a CM4 sensor chip using amine coupling chemistry (EDC:NHS). […] A capture antibody density of approximately 5000 RU was obtained. The humanized anti-human IL-17A/F antibodies were captured onto flow cell 2, 3, or 4 of the CM4 chip at a density ranging from 60-150 RU. Capture of the test antibodies to the immobilized surface was performed at a flow rate of 10 μL/min. The BIACORE® instrument measures the mass of protein bound to the sensor chip surface, and thus, capture of the test antibody was verified for each cycle. […] The serial dilutions were injected over the surface and allowed to specifically bind to the test antibody captured on the sensor chip. Duplicate injections of each antigen concentration were performed with an association time of 7 minutes and dissociation time of 15 minutes. Kinetic binding studies were performed with a flow rate of 50 μL/min. In between cycles, the flow cell was washed with 20 mM hydrochloric acid to regenerate the surface. This wash step removed both the captured test antibody and any bound antigen from the immobilized antibody surface. The test antibody was subsequently captured again in the next cycle.
(§3) Data was compiled using the BIACORE® T100 Evaluation software (version 2.0).

Kd	koff	kon	Binder
1 nM	0.005 s⁻¹	4e+06 M⁻¹ s⁻¹	B6
1 nM	0.003 s⁻¹	2e+06 M⁻¹ s⁻¹	B10

Target: T2, human IL-17A/F heterodimer
Assay: cell-based or functional assay
Remark: another data set of the same source

IC50, NIH/3T3/KZ170 NF-kB luciferase reporter	Binder
9.7 nM	B12
24 nM	B13

Target: T3, human IL-17A homodimer
Assay: cell-based or functional assay
Remark: another data set of the same source

IC50, NIH/3T3/KZ170 NF-kB luciferase reporter	Binder
> 600 nM	B12
> 600 nM	B13

Target: T1, human IL-17F homodimer
Assay: cell-based or functional assay
Remark: another data set of the same source

IC50, NIH/3T3/KZ170 NF-kB luciferase reporter	Binder
1.7 nM	B12
1.6 nM	B13

Target: T2, human IL-17A/F heterodimer
Assay: SPR Biacore T100, captured antibody, bivalent analyte model
Experimental: as §1, §2, §3

Kd	koff	kon	Binder
0.4 nM	0.0004 s⁻¹	1e+06 M⁻¹ s⁻¹	B6
0.3 nM	0.0006 s⁻¹	2e+06 M⁻¹ s⁻¹	B10

Target: T4, human IL-23Rα/human IL-12Rβ1 on BaF3 …
Assay: cell-based or functional assay
Remark: another data set of the same source

EC50, STAT3 phosphorylation in Baf3/huIL-23Ra/huIL-12Rb1 transfectants	Binder
0.02 nM	B14

Target: T1, human IL-17F homodimer
Assay: SPR Biacore T100, captured antibody, bivalent analyte model
Experimental: as §1, §2, §3

Kd	koff	kon	Binder
0.3 nM	0.0006 s⁻¹	2e+06 M⁻¹ s⁻¹	B6
0.1 nM	0.0002 s⁻¹	2e+06 M⁻¹ s⁻¹	B10

Target: human PDGF-D (human, UniProt Q9GZP0 250-370, limits assumed)
Sequence (Q9GZP0 250-370 limits assumed): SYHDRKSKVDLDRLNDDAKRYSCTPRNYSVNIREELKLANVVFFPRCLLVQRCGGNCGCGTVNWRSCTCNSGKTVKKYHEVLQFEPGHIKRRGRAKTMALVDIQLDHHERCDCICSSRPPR
Assay: cell-based or functional assay

IC50, NHLF proliferation (3H-thymidine)	Binder
20 nM	B15

Target: human PDGF-C (human, UniProt Q9NRA1 235-345, limits assumed)
Sequence (Q9NRA1 235-345 limits assumed): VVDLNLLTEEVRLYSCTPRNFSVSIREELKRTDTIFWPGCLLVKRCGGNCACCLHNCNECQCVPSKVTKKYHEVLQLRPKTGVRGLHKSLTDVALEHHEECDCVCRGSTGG
Assay: cell-based or functional assay

IC50, NHLF proliferation (3H-thymidine)	Binder
0.09 nM	B15
